For test [1], the target named is T1, human CCR8 (C-C chemokine receptor type 8) expressed on cells (human, UniProt P51685 1-355).
T1 construct: also called HuCCR8
The test can be described thus: on-cell affinity, flow cytometry on 293T cells expressing human CCR8. For orientation: In flow cytometry, cells or beads pass a laser one at a time.

Test [2] has as its target T2, mouse CCR8 expressed on 293T cells (mouse, UniProt P56484 1-353).
T2 construct: whole, on cells
T2 sequence (looked up): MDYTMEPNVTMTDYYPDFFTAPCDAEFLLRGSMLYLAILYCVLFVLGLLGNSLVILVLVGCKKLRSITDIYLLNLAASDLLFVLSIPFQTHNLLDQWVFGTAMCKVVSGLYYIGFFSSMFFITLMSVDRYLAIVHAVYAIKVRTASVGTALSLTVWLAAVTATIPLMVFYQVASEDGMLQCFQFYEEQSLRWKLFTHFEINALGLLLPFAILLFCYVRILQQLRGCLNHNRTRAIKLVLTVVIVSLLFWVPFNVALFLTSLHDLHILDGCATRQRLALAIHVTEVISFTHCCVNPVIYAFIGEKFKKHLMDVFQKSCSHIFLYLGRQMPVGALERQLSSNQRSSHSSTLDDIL
The test can be described thus: flow cytometry, mouseCCR8-293T cells, fold geomean over secondary alone.

Test [3] has as its target T3, Cynomolgus CCR8-ECD-Fc (cynomolgus monkey).
T3 construct: also called CyCCR8-ECD-Fc; Cynomolgus CCR8-Fc
T3 chain: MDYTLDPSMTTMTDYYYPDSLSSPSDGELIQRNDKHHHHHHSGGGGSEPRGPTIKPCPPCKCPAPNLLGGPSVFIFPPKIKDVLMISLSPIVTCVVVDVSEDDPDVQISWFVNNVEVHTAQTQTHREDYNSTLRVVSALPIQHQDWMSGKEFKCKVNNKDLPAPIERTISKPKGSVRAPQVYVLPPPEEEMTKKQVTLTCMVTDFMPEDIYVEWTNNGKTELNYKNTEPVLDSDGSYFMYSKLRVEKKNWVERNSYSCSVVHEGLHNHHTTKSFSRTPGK
The test can be described thus: binding to CyCCR8-ECD-huFc protein (so in the source), OD45-570nm (so in the source).

Test [4] concerns the target T4, Human CCR8-ECD-Fc (human).
T4 construct: also called HuCCR8-ECD-Fc; huCC8-ECD-Fc
T4 chain: T3 chain with P7L, M9V, M12V, S20I, L21F, G27A, R32T, D34G
The test can be described thus: binding to HuCCR8-ECD-moFc protein (so in the source), OD45-570nm (so in the source).

Test [5] concerns the target T5, cynomolgus monkey CCR8 expressed on cells (cynomolgus monkey, UniProt G7NYJ2 1-355).
T5 construct: whole, on cells; also called cyno CCR8; CyCCR8
The test can be described thus: on-cell affinity, flow cytometry on 293T cells expressing cyno CCR8.

The target in test [6] is T2, mouse CCR8 expressed on 293T cells. In words: flow cytometry, mouseCCR8-293T cells, fold geomean over secondary alone. This is another data set of the same source.
For test [7], the target named is T3, Cynomolgus CCR8-ECD-Fc. The test can be described thus: binding to CyCCR8-ECD-huFc protein (so in the source), OD45-570nm (so in the source).
Test [8] addresses T4, Human CCR8-ECD-Fc. The test can be described thus: binding to HuCCR8-ECD-moFc protein (so in the source), OD45-570nm (so in the source).

Positions count from the first letter of the chain named. Where two headings read alike, the source gives them in different places.

T1 sequence (P51685 whole entry): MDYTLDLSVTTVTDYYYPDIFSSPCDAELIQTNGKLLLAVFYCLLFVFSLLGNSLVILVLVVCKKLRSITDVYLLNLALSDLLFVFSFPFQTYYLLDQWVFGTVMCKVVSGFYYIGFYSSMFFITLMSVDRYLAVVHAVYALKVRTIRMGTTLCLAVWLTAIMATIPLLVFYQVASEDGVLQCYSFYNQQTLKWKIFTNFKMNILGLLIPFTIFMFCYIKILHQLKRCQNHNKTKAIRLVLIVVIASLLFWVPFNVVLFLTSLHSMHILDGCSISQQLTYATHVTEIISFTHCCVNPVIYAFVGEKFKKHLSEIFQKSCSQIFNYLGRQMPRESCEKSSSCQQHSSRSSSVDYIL
T5 sequence (G7NYJ2 entry or part of it): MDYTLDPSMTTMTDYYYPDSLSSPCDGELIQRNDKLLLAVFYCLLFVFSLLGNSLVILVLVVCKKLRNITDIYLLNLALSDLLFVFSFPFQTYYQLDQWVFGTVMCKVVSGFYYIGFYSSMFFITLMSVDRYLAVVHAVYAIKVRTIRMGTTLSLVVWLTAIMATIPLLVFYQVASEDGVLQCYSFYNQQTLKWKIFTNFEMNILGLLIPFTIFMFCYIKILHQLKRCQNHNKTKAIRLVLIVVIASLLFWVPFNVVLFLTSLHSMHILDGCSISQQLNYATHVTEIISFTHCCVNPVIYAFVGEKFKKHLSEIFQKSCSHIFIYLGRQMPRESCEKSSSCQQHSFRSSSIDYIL

B1: anti-CCR8-1-2 (antibody, V domains shown)
VH: QVQLVQSGAEVKKPGASVKVSCKASGYTFTSYYMHWVRQAPGQGLEWMGIINPSGGSTSYAQKFQGRVTMTRDTSTSTVYMELSSLRSEDTAVYYCARGVGNGFRFDYWGQGTLVT
VL: QSALTQPASVSGSPGQSITISCTGTSGDVGSYSLVSWYQHHPSRAPKLIIYEVNKRPSGVSDRFSGSKSGNTASLTITGLQAEDEAHYFCSSYTGNINLPVVFGGGTKLTVL
notes: Parental-1 heavy chain with a shuffled lambda light chain; Human IgG expressed in CHO cells
A word on the Kd: it is a measure of binding affinity in units of concentration. Molecule B1 registered a Kd in test [1] of 1.06 nM. Moreover, the binding result is recorded as “no binding (tested: 10 ug/ml)” in test [2], “binds” in the test with Cynomolgus CCR8-ECD-Fc [3] and “binds” with Human CCR8-ECD-Fc [4].

B2: anti-CCR8-1-1 (antibody, V domains shown)
VH: B1 VH
VL: QSALTQPPSVSGSPGQSITISCTGTSSDVGTYNLVSWYQQHPGNAPKLMIYEVTKRPSGVSNRFSGSKSGNTATLTISGLQAEDEADYHCSSYAGSITHVVFGGGTKLTVL
notes: Parental-1 heavy chain with a shuffled lambda light chain; Expressed from a mammalian expression vector in CHO cells as human IgG
Take B2: the dissociation constant Kd in test [5] was determined as 22.1 nM; in test [1], 1.01 nM. The binding result is on record as “no binding (tested: 10 ug/ml)” in test [6], “binds” in the test with Cynomolgus CCR8-ECD-Fc [7] and “binds” in the test with Human CCR8-ECD-Fc [8].

Values taken from patent US20210238292A1 (VACCINEX, published 2021).
